This data set concerns the molecule itself. Briefly: size exclusion chromatography, self-association.

B1: FabA-Linker-FabZ fused heterodimer (enzyme)
chain: MVDKRESYTKEDLLASGRGELFGAKGPQLPAPNMLMMDRVVKMTETGGNFDKGYVEAELDINPDLWFFGCHFIGDPVMPGCLGLDAMWQLVGFYLGWLGGEGKGRALGVGEVKFTGQVLPTAKKVTYRIHFKRIVNRRLIMGLADGEVLVDGRLIYTASDLKVGLFQDTSAFSTQNVAIQTAAPVASASNGLDAAQVQGTMTTNTHTLQIEEILELLPHRFPFLLVDRVLDFEEGRFLRAVKNVSVNEPFFQGHFPGKPIFPGVLILEAMAQATGILAFKSVGKLEPGELYYFAGIDEARFKRPVVPGDQMIMEVTFEKTRRGLTRFKGVALVDGKVVCEATMMCARSREA
notes: Single-chain fusion, His-tagged, purified from E. coli; By SEC and SAXS the chain self-associates into a higher oligomer of about 400 kDa; The number of copies is not settled: 'possibly decamers', and nonamers in computational models; also called FabA-FabZ; FabA-peptide linker-FabZ; not shown: His tag from vector pET-200/TOPO
Regarding B1, the binding result is given as “binds”.

B2: FabZ-Linker-FabZ fused homodimer (enzyme)
chain: MTTNTHTLQIEEILELLPHRFPFLLVDRVLDFEEGRFLRAVKNVSVNEPFFQGHFPGKPIFPGVLILEAMAQATGILAFKSVGKLEPGELYYFAGIDEARFKRPVVPGDQMIMEVTFEKTRRGLTRFKGVALVDGKVVCEATMMCARSREASTQNVAIQTAAPVASASNGLDAAQVQGTMTTNTHTLQIEEILELLPHRFPFLLVDRVLDFEEGRFLRAVKNVSVNEPFFQGHFPGKPIFPGVLILEAMAQATGILAFKSVGKLEPGELYYFAGIDEARFKRPVVPGDQMIMEVTFEKTRRGLTRFKGVALVDGKVVCEATMMCARSREA
notes: Single-chain fusion; By SEC it elutes as a trimer of fused dimers, so three copies of this chain, at about 116 kDa; also called FabZ-FabZ; FabZFabZ; not shown: His tag from vector pET-200/TOPO
For B2, the binding result is “binds”.

Values taken from US20220403424A1 (UNIVERSITY OF PUERTO RICO, published 2022).
